Experimental data reported in patent publication US9677053B2, “Laccases for bio-bleaching” (BASF ENZYMES LLC, priority 2006, dated 2017).

B1: BD22449: laccase from Cochiobolus heterostrophus, SEQ ID NO: 2, expressed in Aspergillus niger, tested as culture supernatant (protein, listed as Cochliobolus heterostrophus)
chain: MVSSISRVVTALGLLLPTVTSSVVPHKSLAPRTPEVPWKNTGLFSGHSKRQGYETACNHGPESRGCWIDDFNIDTDMDVEWPDTGKTVKYHLTITNTTGAPDGFERPMFLINGQYPGPTITADWGDVLEITVTNGLENNGTGIHWHGLRQLGTNEQDGVNGITECPIAPGDSKLYRFKATQYGTTWYHSHYSVQYGDGIVGPLIIKGPSTANYDIDLGAFPMTDWFHATTFTVNAAAVHANGPPTADNVLVNGSMTSSFGGKYAETILTPGKSHLLRLMNVGINNYLHVGLDGHQFQVISADFTPIEPFYTDSLVLAVGQRYEVIINATEAVGNYWLRVGTGGNCDGPNANAANIRSIFRYAGAPTEDPDTTGSLPSGCYDEDVVPYAKTTVPQEMPEQLSVGFNPNWTSDVTQNQGLVQWLVNGNPMAVDLEVPTLQSVLDGNVTYGNNRHVFAVDEKHQWQYWVIQQNSSNPPLPHPIHLHGHDFYVLAQVENAVWNGDISTLKTDNPIRRDTADLPAGGYLVLAFESDNPGAWLMHCHIPFHVAAGLGVQFLERESEIKAQDGYAEMHRTCANWQSWRYKYHPNGILFPGDSGLRRRN
B2: BD22865: laccase from Fusarium verticillioides, SEQ ID NO: 4, expressed in Aspergillus niger, tested as culture supernatant (protein)
chain: MALIERVWHACVSIVAWLTMWPTSPSTSYQHPLRPNHPHTHIEDPSPGFPIFHPPPGDHEFLCEYPEMTGFVQCSIPENRECWLRHPDGREFNIHTNYENFAPKGIMRHYTLNITESWYNADGQNFTEAKLFNGEYPGPWLEACWGDTFNITVINSMKRNGTSIHWHGIRQNQTMDMDGVNGITQCPIAPGDSFSYIFNTTQYGTSWYHSHYSVQYADGLQGPITIHGPQSAPYDATKRPLLMTDWSHESAFRLLFPGSQFSNKTILLNGAGNVSHYGYTPTLPIPDNYELYFNKTPTDKPTRPKRYLLRLINTSFDSTLVFSIDNHWLQIVTSDFVPIEPYFNTSVLIGIGQRYNVIVEANPLGGDVNEIPDDGNFWIRTWVADACGIAPGGEGYEKTGILRYNHSDKALPSSQPWVNISKACSDETYTSLRPKIPWYIGPAANAQNGERFNVTFDPNAKNTPEFQEEYPVATFGLQRPGQNFRPLQINYSDPVMFHLDEPRDTYPPKWVVIPEDYTEKEWVYFVLTIEGISARTGAHPIHLHGHDFALLQQEENQTYDPSRLNLKLDNPPRRDVVLLPRNGFVVIAFKADNPGIWLMHCHIARHASEGLAMQVLERQGDSNKLFPVGSPNMIEAERVCKVWETWMDGEKDFFEGDSGI
modifications: Fusarium verticillioides

Columns and labels:
[1] = mediator ability to delignify pulp
[2] = oxidation of Mediator 71 at pH 8, oxygen electrode; type: biochemical; details: for specific activity, oxidation of Mediator 71: 1 mM Mediator 71, pH 8, room temperature, laccase preparation, not purified protein
Experimental: BD22449 (SEQ ID NO:2), BD22865 (SEQ ID NO:4) and Trametes versicolor laccase (used as a control) were assayed for their ability to oxidize Mediator 71 at pH 8 using oxygen electrode. Briefly, 50 μL of BD22449 or BD22865 culture supernatant isolated as described in Example 2 was incubated with 950 μL Mediator 71 dissolved in Britton-Robinson Buffer to a final concentration of 1 mM at pH 8. The consumption of oxygen was measured at room temperature in an OXYTHERM™ oxygen measurement instrument over time as described above.

[3] = delignification of wood pulp with laccase and mediator, handsheet brightness; details: with Mediator 71 (50 mg per 1 gram softwood pulp), borate buffer pH 8, 22° C., then NaOH/H2O2 extraction at 75° C.
Experimental: Laccases BD22449 and BD22865, identified and characterized in Examples 1-5 above were assayed for wood pulp delignification with Mediator 71. Briefly, 1 gram of softwood pulp was treated with 3 mL of BD22449 or BD22865 culture supernatant isolated as described in Example 2 with 50 mg of Mediator 71 at 5% consistency in borate buffer pH 8 at 22° C. Laccase/mediator treatment was followed by extraction stage with 2.5% NaOH, 2% H2O2 at 75° C. Handsheets were made out of the treated pulp and brightness increase due to the laccase/mediator treatment was measured using Brightmeter Micro S-5 (Technidyne Corp. New Albany, Ind., USA). Brightness increase obtained with BD22449 and BD22865 with Mediator 71 was −30% (data not shown).

[4] = thermotolerance, residual activity on ABTS; type: biochemical; details: 1 hour
Experimental: Laccases BD22449 and BD22865, identified and characterized in Examples 1-5 above were assayed for thermotolerance. Briefly, each laccases was tested at 50° C., 60° C. and 70° C. for 0-60 minutes wherein the residual activity on ABTS was measured. Supernatants from the Aspergillus cultures expressing BD22449 (SEQ ID NO:2) and BD22865 (SEQ ID NO:4) were isolated as described in Example 2. Supernatants were incubated at 50° C., 60° C. or 70° C. for 1 min, 5 min, 10 min, 30 min, and 60 min. For each time point, the oxidation of 2, 2′-azino-bis(3-ethylbenzthiazoline-6-sulfonic acid) (ABTS) by the laccase was measured using an OXYTHERM™ oxygen measurement instrument.

[5] = TEMPO oxidation, oxygen consumption (OXYTHERM); type: biochemical; details: 1 mM TEMPO, pH 8, 22° C., culture supernatant
Experimental: Briefly, 50 μL of test culture supernatants isolated as described in Example 2 was incubated with 950 uL TEMPO (1 mM in Britton-Robinson Buffer at pH 8) at 22° C. in an OXYTHERM™ oxygen measurement instrument (Hansatech, England). Oxygen consumption was measured over time according to the manufacturer's instructions.

[6] = pHopt for oxidation of Mediator 71; type: biochemical; details: 1 mM Mediator 71, pH 5-10, room temperature, 20 min
Experimental: Next, the pHopt for the catalysis of the oxidation of Mediator 71 was determined for each laccase. […] of BD22449 or BD22865 culture supernatant isolated as described in Example 2 was incubated with […] Mediator 71 dissolved in Britton-Robinson Buffer to a final concentration of 1 mM at pH 5, 6, 7, 8, 9, or 10. The consumption of oxygen over 20 min at room temperature was determined in an OXYTHERM™ oxygen measurement instrument over time as described above. […] By contrast, the Trametes laccase had no activity on Mediator 71 at pH 7 or above.

[7] = HBT oxidation, oxygen consumption; type: biochemical; details: 1 mM HBT, pH 8, 22° C.
Experimental: (§1) The ability of BD22865 (SEQ ID NO: 4) to oxidize mediators with higher redox potentials such as violuric acid and 1-hydroxybenzotriazole (HBT) at pH 8 at room temperature was also tested. Briefly, 50 μL of BD22865 culture supernatant isolated as described in Example 2 was incubated with 950 μL violuric acid (1 mM in Britton-Robinson Buffer at pH 8) or HBT (1 mM in Britton-Robinson Buffer) at pH 8 at 22° C. in an OXYTHERM™ oxygen measurement instrument. Oxygen consumption was measured as described above. SEQ ID NO:4 (BD22865) was able to oxidize both violuric acid and HBT with oxygen consumption rates of 150 nmol/min/mg and 100 nmol/min/mg, respectively under the conditions described herein.

[8] = violuric acid oxidation, oxygen consumption; type: biochemical; details: 1 mM violuric acid, pH 8, 22° C.
Experimental: as §1

| Molecule | ability to delignify pulp [1] | efficiency among mediators ([1]; pH 5 and pH 8) | specific activity, oxidation of Mediator 71 [2] | brightness increase of handsheets [3] | activity remaining after an hour at 60° C. [4] | TEMPO oxidation, oxygen consumption rate [5] | pH of optimum oxidation of Mediator 71 [6] | HBT oxidation, oxygen consumption rate [7] | specific activity on Mediator 71 compared to BD22449 ([2]; pH 8) | violuric acid oxidation, oxygen consumption rate [8] |
| --- | --- | --- | --- | --- | --- | --- | --- | --- | --- | --- |
| CNC(=O)N(O)c1cccc(C(F)(F)F)c1 [Mediator 71, 3-(3′-Trifluoromethylphenyl)-3-hydroxy-1-methylurea] | capable of delignifying pulp | most efficient | – | – | – | – | – | – | – | – |
| B1 | – | – | 677 nmol/min/mg | −30% | approximately 100% | did not show TEMPO oxidation | 8 | – | – | – |
| B2 | – | – | 1350 nmol/min/mg | −30% | about 40% | 250 nmol/min/mg | 8 | 100 nmol/min/mg | about twice the specific activity | 150 nmol/min/mg |
